Source: patent US10323085B2, “Methods of treating fibromyalgia” (Teva Pharmaceuticals International GmbH, priority 2008, dated 2019)

T1: adrenomedullin (Homo sapiens, UniProt P35318)
T1 sequence (P35318 95-146 limits assumed): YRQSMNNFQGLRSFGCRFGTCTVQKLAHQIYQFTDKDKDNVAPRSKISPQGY

T2: amylin (Homo sapiens, UniProt P10997)
T2 sequence (P10997 34-70 limits assumed): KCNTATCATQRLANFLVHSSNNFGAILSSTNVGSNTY

T3: calcitonin (Homo sapiens, UniProt P01258)
T3 sequence (P01258 85-116 limits assumed): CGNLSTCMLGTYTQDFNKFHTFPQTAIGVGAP

B1: G2: anti-rat CGRP mouse monoclonal antibody (Wong H C et al. Hybridoma 1993); variable regions SEQ ID Nos. 19 and 20; murine tool (antibody, V domains shown)
VH: EVQLQQSGPELVKPGASVKMSCKASGYTFTSSVMHWVKQKPGQGLEWIGYINPYNDGTKYNEKFKGKATLTSDKSSSTAYMELSSLTSEDSAVYYCAKGGNDGYWGQGTTLTVSS
VL: EIVLTQSPTTMAASPGEKITITCSASSSISSIYLHWYQQKPGFSPKVLIYRASNLASGVPARFSGSGSGTSYSLTIGTMEAEDVATYYCQQGSTIPFTFGSGTKLEIK
modifications: Synthetic polypeptide, Antibody G2 heavy chain variable region; Synthetic polypeptide, Antibody G2 light chain variable region
notes: anti-rat CGRP mouse monoclonal antibody (Wong H C et al. Hybridoma 1993); murine tool

Legend:
[1] = target: T4, 25-37 human α-CGRP fragment (Homo sapiens, UniProt P06881); test: Alanine scan of C-terminal CGRP fragment (CGRP 25-37) by Biacore, epitope identification; assay type: binding; details: 25° C., Biacore 3000
T4 construct: (CGRP 25-37)
Description: Interaction analysis was conducted at 25° C. on a Biacore 3000™ system equipped with streptavidin-coated (SA) sensor chips (Biacore AB, Uppsala, Sweden) using a standard Biacore running buffer (HBS-P). […] Each amino acid between position 27-37 was then mutated individually to alanine and expressed the fold loss in affinity compared to the wild-type fragment. N-biotinylated fragments were captured on individual flow cells at low levels (typically 100 response units) to provide the reaction surfaces, while an unmodified flow cell served as a reference channel. Purified Fab fragments of antibody G1 were generated. Fab fragments were titrated over the chip using 1 μM as the top concentration of a two-fold dilution series. Association and dissociation phases were monitored at 100 μl/min for 1 minute and 5 minutes respectively. Surfaces were regenerated with a mixture of 35% ethanol+25 mM NaOH+0.5M NaCl.

[2] = tested on: CGRP1-receptor in SK-N-MC cells; test: Binding assay: blocking human α-CGRP from binding to the CGRP1-receptor in SK-N-MC cells; details: FIG. 4
rats = test: Indicators of physical or psychological dependence, long term observation of dosed animals; details: rat, in vivo
CGRP = test: Neurogenic skin flare rat model (saphenous nerve stimulation, laser Doppler blood flow); assay type: in vivo; details: for start of significant decrease in blood flow response post dose: intravenous; for development of neurogenic flare in vivo: rat
Description: Using a neurogenic skin flare rat model the efficacy of G1 was tested for its ability to block CGRP effect in vivo. The saphenous nerve in the rat is electrically stimulated causing CGRP release from nerve endings and leading to vasodilation, the resulting changes in blood flow can be measured using laser Dopler methods.
Changes in blood flow parameters were expressed as the area under the curve (AUC, change in arbitrary Doppler flux units multiplied by time). CGRP receptor antagonist CGRP8-37 (400 nmol/kg, i.v.) was used as a positive control to validate the specificity of the model (data not shown). To determine the effect of G1 prior to dosing for each animal, the baseline blood flow response to stimulation was established with two saphenous nerve stimulations each 30 minutes apart. Rats were treated with G1 after the blood flow response of the second stimulation had returned to baseline levels (approximately 10 minutes post stimulation) and an additional four stimulations at 30 minute intervals were performed.

adrenomedullin = target: T1, adrenomedullin; test: Solution competition by Biacore (specificity); assay type: binding; details: pre-incubated with an excess of adrenomedullin
Excerpt: (§1) We determined the specificity of antibody G1 to human or rat CGRP by using the Biacore chip to “probe” the free concentration of a premixed complex of mAb+peptide.

rat CGRP = test: Solution competition by Biacore (specificity); assay type: binding; details: pre-incubated with rat CGRP
Excerpt: as §1

amylin = target: T2, amylin; test: Solution competition by Biacore (specificity); assay type: binding; details: pre-incubated with an excess of amylin
Excerpt: as §1

human CGRP = test: Solution competition by Biacore (specificity); assay type: binding; details: pre-incubated with human CGRP
Excerpt: as §1

calcitonin = target: T3, calcitonin; test: Solution competition by Biacore (specificity); assay type: binding; details: pre-incubated with an excess of calcitonin
Excerpt: as §1

MRMT-1 injected rats [3] = test: Bone cancer pain model (MRMT-1), mechanical hypersensitivity to von Frey stimuli; assay type: in vivo, rat; details: IV 10 mg/kg at day 9
Description: Tumour cells used are syngeneic MRMT-1 rat mammary gland carcinoma cells donated from the Novartis Institute (London). The cells are cultured in RPMI 1640 (Gibco) with 10% foetal bovine serum (FCS), 1% L-glutamine 2% penicillin/streptomycin (Gibco). Two brief washes are carried out with 0.1% w/v trypsin to release those cells which adhere to the flask, and then quenched with an equal volume of 10% FCS, followed by centrifugation of the solution for 3 minutes at 1200 rpm. The pellet is washed and resuspended in Hanks medium, and the concentration of cells calculated using a Haemocytometer, with trypan blue staining to determine the number of dead MRMT-1 cells. The final concentration of 3×10^3 cells was then obtained by diluting the solution according to the number of cells seen. The final solution was kept on ice until time of injection.
Male Sprague-Dawley rats weighing close to 170 g at time of surgery were used to generate the cancer model. Anaesthesia was induced in the rats using halothane or isoflurane (1.5-2%) 66% N2O and 33% O2, the leg was shaved over the appropriate area and disinfected with chlorhexidine (Animalcare Ltd, UK.). A small incision in order to expose the anterior-medial surface of the distal end of the tibia was made. A hole was bored in the periosteum using a 0.7 mm dental drill, through which a 2 cm polythene tubing was fed 1 cm into the intra-medullar cavity of the tibia. Using a Hamilton syringe the pre-prepared 10 μl of 3×10^3 MRMT-1 cells were injected through the tubing into the cavity. The tubing was then removed and the hole plugged using bone restorative material (IRM, Dentsply USA). The wound was then irrigated with 0.9% saline and closed with a metal clip. The sham animals were operated upon using the same procedure but injected with 10 μl of Hank's solution alone. The animals were placed in a thermoregulated recovery box until such time that they were able to be placed back in their housing cages.
Testing behaviour towards mechanical stimuli uses von Frey filaments (North Coast Medical Inc., USA) to the plantar surface of both the ipsilateral and contralateral hindpaw. The rats were placed in a Perspex cubicle with a mesh floor and allowed to acclimatise for 10 minutes. Each von Frey was applied 10 times to each hindpaw alternating between the ipsilateral and contralateral, for duration of 2-3 seconds each time. […] A nocifensive response (a lift) is defined as a brisk withdrawal of the hindpaw and the number of lifts for each paw at each von Frey are recorded (maximum of 10) and expressed as a percentage response. An assessment of the efficacy of rodent anti-CGRP antibody G2 in attenuating hypersensitivity to a wide variety of static mechanical, cooling and integrated stimuli was carried out as well as the background basal pain behaviours in this validated model of cancer induced bone pain. The responses measured are attenuated by standard analgesic treatments such as morphine and gabapentin. All measures were made by the same scientist in a blind fashion—blinded to the identity of the compound/control and to the treatment of the animal.
G2-was given IV at 10 mg/kg at day 9 and rats were tested at 2 hrs and then on days 10, 11, 12 and then 14-18 days post treatment (FIG. 1).

MRMT-1 injected rats [4] = test: Rota rod test for motor impairment in the bone cancer pain model; assay type: in vivo, rat; details: MRMT-1 injected rats treated at day 9 post surgery
Excerpt: A further end point tested in the bone cancer pain model was ambulation (by rotarod). The test is to obtain a measurement of locomotor impairment comparing antibody treated with control animals, each subjected to the same test under the same conditions. The rota rod test consists of 4 rotateable drums divided by flanges with a motor-driven drum accelerated (Ugo Basile, Comerio, VA, Italy). For a given trial, a rat is placed on the rotating rod and the rotation speed is accelerated from 4 to 16 rpm in 2 min. The time of maximal performance is typically set at 120 sec. Each animal generally receives three trials per day, at 1 hr intervals, for several consecutive days post-surgery. The latency to fall off the rod is represented as mean of the three trials.

Molecule | affinity of N-biotinylated 25-37 human α-CGRP fragment compared with full-length N-biotinylated human α-CGRP [1] | inhibition of binding of α-CGRP to the CGRP1 receptor [2] | CNS penetration (rats) | start of significant decrease in blood flow response post dose (CGRP; 1 mg/kg) | start of significant decrease in blood flow response post dose (CGRP; 10 mg/kg) | inhibits neurogenic flare in the skin starting from, post-treatment (CGRP; FIG. 9, intravenous administration) | development of neurogenic flare in vivo (CGRP) | complex formation with peptide (adrenomedullin) | Biacore response after pre-incubation with peptide (rat CGRP) | complex formation with peptide (amylin) | Biacore response after pre-incubation with peptide (human CGRP) | complex formation with peptide (calcitonin) | hypersensitivity to von Frey 15 g vs vehicle treated group (MRMT-1 injected rats [3]; 2 and 3 days after drug administration) | hypersensitivity to von Frey 15 g vs vehicle treated group (MRMT-1 injected rats [3]; 2 hours post-injection) | hypersensitivity to von Frey 15 g vs vehicle treated group (MRMT-1 injected rats [3]; 6 days after G2 administration) | Withdrawal frequencies to von Frey 8 g vs vehicle treated group (MRMT-1 injected rats [3]; day 14 (day 5 post-G2 injection)) | Withdrawal frequencies to von Frey 8 g vs vehicle treated group (MRMT-1 injected rats [3]; days 11 and 12 (days 2 and 3 after injection)) | Withdrawal frequencies to von Frey 8 g (MRMT-1 injected rats [3]; two hours after injection) | latency to fall from the rotarod during forced ambulation vs vehicle group (MRMT-1 injected rats [4])
G1: humanized IgG2Δa monoclonal anti-CGRP antagonist antibody from expression vectors ATCC PTA-6867 and PTA-6866; variable regions SEQ ID Nos. 1 and 2 | same affinity | inhibits the binding | Neither antibody G1 nor antibody G2 demonstrate CNS penetration | 120 min | 90 min | 90 min | prevent the development of neurogenic flare | did not form a complex | fully blocked | did not form a complex | fully blocked | did not form a complex |  |  |  |  |  |  | 
B1 |  |  | Neither antibody G1 nor antibody G2 demonstrate CNS penetration |  |  |  | prevent the development of neurogenic flare |  |  |  |  |  | significance seen | reduction in hypersensitivity | reductions were lost | no discernible difference | significantly reduced | reduced | No differences were found
